Measurements published in US20260242478A1 (published 2026).

B1: Phage-203 (peptide)
peptide: MSWCPRDMWFYCYA
notes: tested as crude clonal phage supernatant
B2: Phage-210 (peptide)
peptide: MDWCPRDMWFECFA
notes: as for B1
B3: Phage-218 (peptide)
peptide: TFGCPTTMWNRCFA
notes: as for B1
B4: Phage-318 (peptide)
peptide: MDWCPMFLWDECFN
notes: Clonal phage of the Peptide-9 library; also called the position column gives F at position 7)
B5: Phage-220 (peptide)
peptide: FDFCPTTMWTYCQH
notes: as for B1
B6: Phage-208 (peptide)
peptide: MDWCPTDMWIVCFA
notes: as for B1
B7: Phage-213 (peptide)
peptide: MNWCPSYMWDQCFA
notes: as for B1
B8: Phage-221 (peptide)
peptide: TTWCPTSMWLHCFD
notes: as for B1
B9: Phage-206 (peptide)
peptide: IHWCPINMWDKCYN
notes: as for B1
B10: Phage-217 (peptide)
peptide: MDWCPWDMWDKCFN
notes: as for B1
B11: Phage-205 (peptide)
peptide: MDWCPTDMWHHCFL
notes: as for B1
B12: Phage-215 (peptide)
peptide: MDWCPRYMWNECFN
notes: as for B1
B13: Phage-209 (peptide)
peptide: IDWCPQDMWFYCFN
notes: as for B1
B14: Phage-212 (peptide)
peptide: MDWCPRAMWDKCFF
notes: as for B1
B15: Phage-204 (peptide)
peptide: MDWCPRHMWNVCFS
notes: as for B1
B16: Phage-216 (peptide)
peptide: MDWCPMNMWYQCFN
notes: as for B1
B17: Phage-222 (peptide)
peptide: MDWCPRDQWHNCFN
notes: as for B1
B18: Phage-214 (peptide)
peptide: MDWCPTYMWSECFN
notes: as for B1
B19: Phage-207 (peptide)
peptide: MDWCPRAMWHECFY
notes: as for B1
B20: Phage-219 (peptide)
peptide: NYWCPSSMWNRCLH
notes: as for B1

Legend:
[1] = target: T1, anti-CD28 scFv (VH - linker 1 - VL) (biotinylated (site not stated)); experiment: clonal phage ELISA; captured anti-CD28 scFv pre-incubated with soluble CD28 (competitor), anti-M13-HRP detection;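 also: crude clonal phage supernatants added to wells pretreated with soluble CD28 in blocking buffer, compared against wells given blocking buffer only, then bound phage measured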
T1 construct: Captured as biotinylated scFv on neutravidin coated plates in the clonal phage ELISA
T1 sequence (scFv, as listed by the source): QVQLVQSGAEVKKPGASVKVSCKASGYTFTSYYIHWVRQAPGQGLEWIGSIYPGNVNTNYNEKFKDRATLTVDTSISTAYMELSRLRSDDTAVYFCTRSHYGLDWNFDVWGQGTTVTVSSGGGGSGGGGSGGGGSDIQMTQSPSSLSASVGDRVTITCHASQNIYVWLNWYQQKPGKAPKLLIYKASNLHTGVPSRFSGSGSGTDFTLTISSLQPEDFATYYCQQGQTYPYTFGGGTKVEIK

[2] = target: T1, anti-CD28 scFv (VH - linker 1 - VL); experiment: clonal phage ELISA; biotinylated anti-CD28 scFv on neutravidin plate, anti-M13-HRP detection;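 also: crude supernatants of phage clones were tested in wells pretreated with blocking buffer either alone or supplemented with soluble CD28 protein before phage addition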
Description: Clonal phage were harvested as crude supernatants and screened via standard enzyme linked immunosorbent assays (ELISAs). […] Prior to the addition of clonal phage, wells were incubated with blocking buffer and CD28 soluble protein or blocking buffer alone. Without washing or aspirating, clonal phage supernatants were then added to the wells and incubated for a short time. Wells were then washed followed by detection of bound phage using a horse radish peroxidase conjugated anti-M13 antibody.

[3] = target: T2, Anti-CD28 scFv (VH - linker 1 - VL) (biotinylated (site not stated)); experiment: phage ELISA; biotinylated anti-CD28 scFv on neutravidin plate, clonal phage supernatant, anti-M13-HRP;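 also: before the phage were added, wells were pre-incubated with soluble CD28 protein in blocking buffer, or with blocking buffer alone, and were not washed in between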
T2 construct: Biotinylated anti-CD28 scFv captured on neutravidin coated plates in the panning ELISA
T2 sequence (scFv, as listed by the source): as above

[4] = target: T2, Anti-CD28 scFv (VH - linker 1 - VL); experiment: phage ELISA as above; wells pre-incubated with soluble CD28 as competitor;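 also: crude clonal phage supernatants tested, with bound phage detected by HRP-conjugated anti-M13 antibody, and reference wells given blocking buffer without CD28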

Binder | CD28 scFv signal in presence of CD28 [1] | CD28 scFv signal [2] | CD28 scFv signal [3] | CD28 scFv signal in presence of CD28 [4]
B1 | 0.174 | 2.25 |  | 
MDWCPTYLWNVCFA (Clonal phage of the Peptide-9 library) [Phage-323] |  |  | 2.21 | 0.132
B2 | 0.143 | 1.31 |  | 
MDWCPRDLWYQCFN (Clonal phage of the Peptide-9 library) [Phage-311] |  |  | 2.35 | 0.609
MDWCPRHLWHECFT (Clonal phage of the Peptide-9 library) [Phage-317] |  |  | 2.3 | 0.32
B3 | 0.068 | 0.181 |  | 
B4 |  |  | 2.29 | 0.203
B5 | 0.081 | 0.086 |  | 
MDWCPRDLWDECFN (Clonal phage of the Peptide-9 library) [Phage-310] |  |  | 2.37 | 0.248
B6 | 0.172 | 1.5 |  | 
B7 | 0.105 | 0.854 |  | 
MDWCPIHLWNECFN (Clonal phage of the Peptide-9 library) [Phage-314] |  |  | 2.35 | 0.157
B8 | 0.072 | 0.074 |  | 
B9 | 0.203 | 2.08 |  | 
MDWCPRSLWNYCFN (Clonal phage of the Peptide-9 library) [Phage-313] |  |  | 2.35 | 0.209
MDWCPRSLWNYCFA (Clonal phage of the Peptide-9 library) [Phage-316] |  |  | 2.32 | 0.198
B10 | 0.108 | 0.586 |  | 
MDWCPRDLWYVCFA (Clonal phage of the Peptide-9 library) [Phage-321] |  |  | 2.22 | 0.138

Binder | CD28 scFv signal in presence of CD28 [1] | CD28 scFv signal [2] | CD28 scFv signal [3] | CD28 scFv signal in presence of CD28 [4]
B11 | 0.126 | 2.2 |  | 
MFWCPITLWNECFN (Clonal phage of the Peptide-9 library) [Phage-326] |  |  | 2.15 | 0.143
MDWCPTYLWHVCFS (Clonal phage of the Peptide-9 library) [Phage-315] |  |  | 2.32 | 0.16
B12 | 0.128 | 0.687 |  | 
MDWCPTYLWNECFN (Clonal phage of the Peptide-9 library) [Phage-320] |  |  | 2.24 | 0.606
B13 | 0.16 | 1.42 |  | 
B14 | 0.094 | 0.985 |  | 
MDWCPAYLWDECFA (Clonal phage of the Peptide-9 library) [Phage-325] |  |  | 2.17 | 0.163
B15 | 0.13 | 2.25 |  | 
MDWCPRHLWIECFN (Clonal phage of the Peptide-9 library) [Phage-322] |  |  | 2.21 | 0.376
MHWCPRDLWHVCFN (Clonal phage of the Peptide-9 library) [Phage-327] |  |  | 2.15 | 0.15
B16 | 0.137 | 0.639 |  | 
B17 | 0.078 | 0.2 |  | 
B18 | 0.107 | 0.754 |  | 
MDWCPRHLWYECFS (Clonal phage of the Peptide-9 library) [Phage-324] |  |  | 2.17 | 0.163
B19 | 0.129 | 1.92 |  | 
B20 | 0.088 | 0.158 |  | 
MSWCPRDLWHLCFF (Clonal phage of the Peptide-9 library) [Phage-319] |  |  | 2.27 | 0.319
